# Measured values taken from PMC8816864 (Proteins, 2021).
# B1: HSC82 (GFP fusion) (natural protein)
# chain: not shown
# B2: SSA1-GFP (natural protein)
# chain: not shown
# B3: SSA2-GFP (natural protein)
# chain: not shown
# B4: eRF1-GFP (natural protein, S. cerevisiae, UniProt P12385 1-437, looked up)
# chain: MDNEVEKNIEIWKVKKLVQSLEKARGNGTSMISLVIPPKGQIPLYQKMLTDEYGTASNIKSRVNRLSVLSAITSTQQKLKLYNTLPKNGLVLYCGDIITEDGKEKKVTFDIEPYKPINTSLYLCDNKFHTEVLSELLQADDKFGFIVMDGQGTLFGSVSGNTRTVLHKFTVDLPKKHGRGGQSALRFARLREEKRHNYVRKVAEVAVQNFITNDKVNVKGLILAGSADFKTDLAKSELFDPRLACKVISIVDVSYGGENGFNQAIELSAEALANVKYVQEKKLLEAYFDEISQDTGKFCYGIDDTLKALDLGAVEKLIVFENLETIRYTFKDAEDNEVIKFAEPEAKDKSFAIDKATGQEMDVVSEEPLIEWLAANYKNFGATLEFITDKSSEGAQFVTGFGGIGAMLRYKVNFEQLVDESEDEYYDEDEGSDYDFI
# B5: HSP60 (GFP fusion) (natural protein, S. cerevisiae, UniProt P19882 26-572, looked up)
# chain: ELKFGVEGRASLLKGVETLAEAVAATLGPKGRNVLIEQPFGPPKITKDGVTVAKSIVLKDKFENMGAKLLQEVASKTNEAAGDGTTSATVLGRAIFTESVKNVAAGCNPMDLRRGSQVAVEKVIEFLSANKKEITTSEEIAQVATISANGDSHVGKLLASAMEKVGKEGVITIREGRTLEDELEVTEGMRFDRGFISPYFITDPKSSKVEFEKPLLLLSEKKISSIQDILPALEISNQSRRPLLIIAEDVDGEALAACILNKLRGQVKVCAVKAPGFGDNRKNTIGDIAVLTGGTVFTEELDLKPEQCTIENLGSCDSITVTKEDTVILNGSGPKEAIQERIEQIKGSIDITTTNSYEKEKLQERLAKLSGGVAVIRVGGASEVEVGEKKDRYDDALNATRAAVEEGILPGGGTALVKASRVLDEVVVDNFDQKLGVDIIRKAITRPAKQIIENAGEEGSVIIGKLIDEYGDDFAKGYDASKSEYTDMLATGIIDPFKVVRSGLVDASGVASLLATTEVAIVDAPEPPAAAGAGGMPGGMPGMPGMM
# B6: HSP26 (GFP fusion) (natural protein, S. cerevisiae, UniProt P15992 1-214, looked up)
# chain: MSFNSPFFDFFDNINNEVDAFNRLLGEGGLRGYAPRRQLANTPAKDSTGKEVARPNNYAGALYDPRDETLDDWFDNDLSLFPSGFGFPRSVAVPVDILDHDNNYELKVVVPGVKSKKDIDIEYHQNKNQILVSGEIPSTLNEESKDKVKVKESSSGKFKRVITLPDYPGVDADNIKADYANGVLTLTVPKLKPQKDGKNHVKKIEVSSQESWGN
# B7: HSP82 (GFP fusion) (natural protein)
# chain: not shown
# What was measured:
# [1] = target: T1, Flag-eRF1 (S. cerevisiae, UniProt P12385 1-437); experiment: co-IP + AUC
# [2] = target: T1, Flag-eRF1; experiment: co-IP + AUC; remark: listed apart in the source
binder,measurement,setting,value
B1,normalized AU-FDS intensity relative to SUP35-GFP (19S peak),[1],0.08
same,normalized AU-FDS intensity relative to SUP35-GFP (28S peak),[1],0.088
same,normalized AU-FDS intensity relative to SUP35-GFP (39S peak),[1],0.11
same,normalized AU-FDS intensity relative to SUP35-GFP (57S peak),[1],0.11
same,normalized AU-FDS intensity relative to SUP35-GFP (77S-200S),[1],0.083
same,% abundance in the Flag-eRF1 pull-down normalized to SUP35 (19S-200S),[2],9.5 ± 3.5%
B2,normalized AU-FDS intensity relative to SUP35-GFP (19S peak),[1],0.29
same,normalized AU-FDS intensity relative to SUP35-GFP (28S peak),[1],0.37
same,normalized AU-FDS intensity relative to SUP35-GFP (39S peak),[1],0.28
same,normalized AU-FDS intensity relative to SUP35-GFP (57S peak),[1],0.28
same,normalized AU-FDS intensity relative to SUP35-GFP (77S-200S),[1],0.31
same,% abundance in the Flag-eRF1 pull-down normalized to SUP35 (19S-200S),[2],30 ± 0.63%
B3,normalized AU-FDS intensity relative to SUP35-GFP (19S peak),[1],0.28
same,normalized AU-FDS intensity relative to SUP35-GFP (28S peak),[1],0.35
same,normalized AU-FDS intensity relative to SUP35-GFP (39S peak),[1],0.36
same,normalized AU-FDS intensity relative to SUP35-GFP (57S peak),[1],0.27
same,normalized AU-FDS intensity relative to SUP35-GFP (77S-200S),[1],0.38
same,% abundance in the Flag-eRF1 pull-down normalized to SUP35 (19S-200S),[2],33 ± 3.45%
B4,% abundance in the Flag-eRF1 pull-down normalized to SUP35 (19S-200S),[2],13 ± 4.5%
B5,normalized AU-FDS intensity relative to SUP35-GFP (19S peak),[1],0.069
same,normalized AU-FDS intensity relative to SUP35-GFP (28S peak),[1],0.11
same,normalized AU-FDS intensity relative to SUP35-GFP (39S peak),[1],0.1
same,normalized AU-FDS intensity relative to SUP35-GFP (57S peak),[1],0.11
same,normalized AU-FDS intensity relative to SUP35-GFP (77S-200S),[1],0.13
same,% abundance in the Flag-eRF1 pull-down normalized to SUP35 (19S-200S),[2],11 ± 0.75%
B6,normalized AU-FDS intensity relative to SUP35-GFP (19S peak),[1],0.087
same,normalized AU-FDS intensity relative to SUP35-GFP (28S peak),[1],0.12
same,normalized AU-FDS intensity relative to SUP35-GFP (39S peak),[1],0.056
same,normalized AU-FDS intensity relative to SUP35-GFP (57S peak),[1],0.052
same,normalized AU-FDS intensity relative to SUP35-GFP (77S-200S),[1],0.065
same,% abundance in the Flag-eRF1 pull-down normalized to SUP35 (19S-200S),[2],7.6 ± 2.9%
B7,normalized AU-FDS intensity relative to SUP35-GFP (19S peak),[1],0.066
same,normalized AU-FDS intensity relative to SUP35-GFP (28S peak),[1],0.13
same,normalized AU-FDS intensity relative to SUP35-GFP (39S peak),[1],0.075
same,normalized AU-FDS intensity relative to SUP35-GFP (57S peak),[1],0.058
same,normalized AU-FDS intensity relative to SUP35-GFP (77S-200S),[1],0.027
same,% abundance in the Flag-eRF1 pull-down normalized to SUP35 (19S-200S),[2],8.6 ± 2.9%
